In patent US20260049151A1 (SHENGHE CHINA BIOPHARMACEUTICAL, published 2026):
Where two headings read alike, the source gives them in different places.

T1: Human-TNFR2-His (human, UniProt P20333 23-257)
T1 construct: Bought protein; also called human TNFR2 protein; TNFR2 protein; not shown: His tag
T1 sequence (looked up): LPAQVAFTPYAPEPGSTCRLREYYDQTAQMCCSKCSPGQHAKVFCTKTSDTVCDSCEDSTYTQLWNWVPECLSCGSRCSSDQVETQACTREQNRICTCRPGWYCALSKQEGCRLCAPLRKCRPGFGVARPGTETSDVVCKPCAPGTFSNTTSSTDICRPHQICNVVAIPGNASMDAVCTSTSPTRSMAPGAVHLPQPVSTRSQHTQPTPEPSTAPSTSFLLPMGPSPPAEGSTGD

B1: Positive control 2 (anti-TNFR2 VHH) (VHH)
VHH: EVQLVESGGGLVQPGGSLRLSCAASGSRLDYYAVAWFRQAPGKEREEVSCITYSGGSTNYAESVKGRFTISRDNSKNTLYLQMNSLRAEDTAVYYCTTEPYGSSCPLSGYDTWGQGTLVTVSS
B2: Positive control (anti-4-1BB antibody, human IgG1) (antibody, V domains shown)
VH: QVQLQESGPGLVKPSETLSLTCTVSGSSLTSYGVHWVRQPPGKGLEGLGVIWPGGSTNYNSALMSRVTISKDNSKSQVSLKMSSLTAADTAVYYCARVTGTWYFDVWGQGTTVTVSS
VL: DIQMTQSPSSLSASLGDRVTISCSASQGISNYLNWYQQKPDGTVKLLIYYTSTLHSGVPSRFSGSGSGTDYTLTISSLQPEDIATYYCQQYSKLPWTFGGGTKLEIK
notes: also called control antibody

Experiments:
Human-TNFR2-His [1] = biological target: T1, Human-TNFR2-His; assay: BLI, antibody on AHC sensor, 100 nM TNFR2-His in solution
Method: The AHC sensor was soaked in 0.02% PBST (0.02% Tween 20, pH 7.4, 1×PBS) as a buffer for 600 s to remove the sucrose covering the sensor surface. The AHC sensor was equilibrated with 0.02% PBST (0.02% Tween 20, pH 7.4, 1×PBS) as a buffer for 60 s, the antibody in the sample plate was solidified for 300 s, and the secondary equilibration buffer was used for 180 s. 100 nM human-TNFR2-His (manufacturer: SINO, CAT: 10417-H08H, LOT: LC15NO0412) protein was bound to the antibody for 300 s and then dissociated for 600 s. After dissociation, 10 mM glycine (pH 2.0) was used as a regeneration buffer for 30 s. The sensor was regenerated with 10 mM glycine (pH 2.0).

Human-TNFR2-His [2] = biological target: T1, Human-TNFR2-His; assay: ELISA: Human-TNFR2-His coated (0.1 ug/mL), antibody titrated, goat anti-human IgG Fc detection (Example 2)
Human-TNFR2-His [3] = biological target: T1, Human-TNFR2-His; assay: as above; remark: listed apart in the source
Method: (§1) Human-TNFR2-His (manufacturer: SINO, CAT: 10417-H08H, LOT: LC15NO0412) was diluted to 0.1 μg/mL with a coating solution (1×PBS, pH7.4), and coated in 96-well ELISA plate at 100 µL/well overnight at 4° C. The coating solution was poured off. Each well was washed with 1×PBST at 300 μL, washed 4 times with a plate washer, and patted dry on a flat paper. It was blocked with 3% skim milk powder at 300 μL/well, and incubated at 37° C. for 1 h. The blocking solution was poured off, washed 4 times with a plate washer, and patted dry on a flat paper. Negative control and positive control were set up. […] The positive control and antibody were diluted to 10 μg/mL with 3% skim milk powder as the starting concentration, and then diluted by 3-fold gradient (11 gradients in total), and a blank well was set up and only the diluent was added. It was incubated at 37° C. for 1 h at 100 μL/well. The liquid in the well was discarded, washed 4 times with a plate washer, and patted dry on a flat paper. Goat anti-human IgG Fc was diluted with 3% skim milk powder at 1:10000, and incubated at 37° C. for 1 h at 100 μL/well. It was washed 6 times with a plate washer, and patted dry on a flat paper. TMB color developing solution was added at 100 μL/well, and wrapped with aluminum foil. Color development was performed at 37° C. in the dark for 8 min. Termination solution 1M HCl was added to terminate the color development reaction at 100 μL/well. Readings were taken at 450 nm on an ELISA reader.

Human-TNFR2-His [4] = biological target: T1, Human-TNFR2-His; assay: as above; remark: listed apart in the source
Method: as §1, with “Termination solution 1M HCl was added to terminate the color development reaction at 100 μL/well.” left out

Human-TNFR2-His [5] = biological target: T1, Human-TNFR2-His; assay: as above; remark: listed apart in the source
Method: as §1

Human 4-1BB His [6] = biological target: T2, Human 4-1BB His (human, UniProt Q07011 24-186); assay: BLI, antibody on AHC sensor, 100 nM 4-1BB His in solution
T2 construct: Bought protein; lots 198-2146F1-W6 and 2407c-214FF1-YC; also called human 4-1BB protein; 4-1BB protein; not shown: His tag
Text: The variable region of the antibody sequence of the positive control consists of SEQ ID NO: 15 and SEQ ID NO: 19, with the addition of the constant region of human IgG1 (SEQ ID NO: 46 and SEQ ID NO: 47). The AHC sensor was soaked in 0.02% PBST (0.02% Tween 20, pH 7.4, 1× PBS) as a buffer for 600 s to remove the sucrose covering the sensor surface. The AHC sensor was equilibrated with 0.02% PBST (0.02% Tween 20, pH 7.4, 1× PBS) as a buffer for 60 s, the antibody in the sample plate was solidified for 300 s, and the secondary equilibration buffer was used for 180 s. 100 nM human 4-1BB His (manufacturer: Acro, CAT: 41B-H5258, LOT: 198-2146F1-W6) protein was bound to the antibody for 300 s and then dissociated for 600 s. After dissociation, 10 mM glycine (pH 2.0) was used as a regeneration buffer for 30 s. The sensor was regenerated with 10 mM glycine (pH 2.0).

Human 4-1BB His [7] = biological target: T2, Human 4-1BB His; assay: ELISA: Human 4-1BB His coated (0.2 ug/mL), antibody titrated, goat anti-human IgG Fc detection (Example 3)
Method: (§2) Human 4-1BB His (manufacturer: Acro, CAT: 41B-H5258, LOT: 198-2146F1-W6) was diluted to 0.2 μg/mL with a coating solution (1×PBS, pH7.4), and coated in 96-well ELISA plate at 100 μL/well overnight at 4° C. The coating solution was poured off. Each well was washed with 1×PBST at 300 μL, washed 4 times with a plate washer, and patted dry on a flat paper. It was blocked with 3% skim milk powder at 300 μL/well, and incubated at 37° C. for 1 h. The blocking solution was poured off, washed 4 times with a plate washer, and patted dry on a flat paper. Negative control and positive control were set up. […] The variable region of the antibody sequence of the positive control consists of SEQ ID NO: 15 and SEQ ID NO: 19, with the addition of the constant region of human IgG1 (SEQ ID NO: 46 and SEQ ID NO: 47). The positive control and antibody were diluted to 10 μg/mL with 3% skim milk powder as the starting concentration, and then diluted by 3-fold gradient (11 gradients in total), and a blank well was set up and only the diluent was added. It was incubated at 37° C. for 1 h at 100 μL/well. The liquid in the well was discarded, washed 4 times with a plate washer, and patted dry on a flat paper. Goat anti-human IgG Fc was diluted with 3% skim milk powder at 1:20000, and incubated at 37° C. for 1 h at 100 μL/well. It was washed 6 times with a plate washer, and patted dry on a flat paper. TMB color developing solution was added at 100 μL/well, and wrapped with aluminum foil. Color development was performed at 37° C. in the dark for 8 min. Termination solution 1M HCl was added to terminate the color development reaction at 100 μL/well. Readings were taken at 450 nm on an ELISA reader.

Human 4-1BB His [8] = biological target: T2, Human 4-1BB His; assay: as above; remark: listed apart in the source
Method: as §2

Human 4-1BB His [9] = biological target: T2, Human 4-1BB His; assay: as above; remark: listed apart in the source
Method: as §2, with “It was washed 6 times with a plate washer, and patted dry on a flat paper. TMB color developing solution was added at 100 μL/well, and wrapped with aluminum foil. Color development was performed at 37° C. in the dark for 8 min. Termination solution 1M HCl was added to terminate the color development reaction at 100 μL/well.” left out

Human 4-1BB His [10] = biological target: T2, Human 4-1BB His; assay: as above; remark: listed apart in the source
Method: as §2

Human 4-1BB His [11] = biological target: T2, Human 4-1BB His; assay: as above; remark: listed apart in the source
Method: as §2

Human 4-1BB His [12] = biological target: T2, Human 4-1BB His; assay: as above; remark: listed apart in the source
Method: as §2

T2 sequence (Q07011 24-186 limits assumed): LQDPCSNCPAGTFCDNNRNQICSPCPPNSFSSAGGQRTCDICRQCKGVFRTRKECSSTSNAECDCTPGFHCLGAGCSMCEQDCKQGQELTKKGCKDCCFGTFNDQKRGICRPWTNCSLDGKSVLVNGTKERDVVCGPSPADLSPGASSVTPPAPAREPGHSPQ

Row | Binder | Kd (Human-TNFR2-His [1]) [nM] | koff (Human-TNFR2-His [1]) [s⁻¹] | kon (Human-TNFR2-His [1]) [M⁻¹ s⁻¹] | EC50 (read off the curve) (Human-TNFR2-His [2]) [nM] | EC50 (read off the curve) (Human-TNFR2-His [3]) [nM] | EC50 (read off the curve) (Human-TNFR2-His [4]) [nM] | EC50 (read off the curve) (Human-TNFR2-His [5]) [nM] | Kd (Human 4-1BB His [6]) [nM] | koff (Human 4-1BB His [6]) [s⁻¹] | kon (Human 4-1BB His [6]) [M⁻¹ s⁻¹] | EC50 (read off the curve) (Human 4-1BB His [7]) [nM] | EC50 (read off the curve) (Human 4-1BB His [8]) [nM] | EC50 (read off the curve) (Human 4-1BB His [9]) [nM] | EC50 (read off the curve) (Human 4-1BB His [10]) [nM] | EC50 (read off the curve) (Human 4-1BB His [11]) [nM] | EC50 (read off the curve) (Human 4-1BB His [12]) [nM]
1 | B1 | 1.61 | 0.000427 | 266000 | ~0.04 | 0.04 to 0.05 | 0.1 to 0.2 | ~0.04 |  |  |  |  |  |  |  |  | 
2 | B2 |  |  |  |  |  |  |  | 14.2 | 0.00553 | 391000 | ~0.05 | ~0.05 | ~0.07 | ~0.1 | ~0.05 | ~0.05
